For experiment [1], the target named is retinoblastoma protein (pRb), endogenous in human cells (human (endogenous in HEK 293T, HeLa)) (UniProt P06400). The experiment in a line: co-IP; HeLa cells transfected with pORFV119^Flag, harvested 12 h post transfection; reciprocal IP (anti-Flag or anti-pRb), high stringency buffer with 300 mM NaCl; Western blot. A general note: In western blotting, separated proteins are transferred to a membrane and probed.

Experiment [2] has the same target. The experiment in a line: co-IP; HEK 293T cells transfected with pORFV119^Flag, pORFV119^LxGxE-Flag or pORFV113^Flag, harvested 12 h post transfection; reciprocal IP of total protein extracts (anti-Flag, anti-pRb or anti-TRAF2), high stringency buffer with 300 mM NaCl, overnight at 4°C, protein G agarose; Western blot.
The target of experiment [3] is retinoblastoma protein (pRb), endogenous in ovine OFTu cells (ovine (endogenous in OFTu)). The experiment in a line: co-IP; OFTu cells infected with Flag-tagged recombinant ORFV (MOI 10), harvested 12 h p.i.; reciprocal IP of total protein extracts (anti-Flag or antibody against the cellular protein), high stringency buffer with 300 mM NaCl, overnight at 4°C, protein G agarose; Western blot.

Experiment [4] has the same target.
Experiment [5] has as its target ORFV119^Flag expressed by revertant virus OV-IA82-RV119^Flag (orf virus (ORFV) strain OV-IA82). Description: co-IP; OFTu cells infected with Flag-tagged recombinant ORFV (MOI 10), harvested 12 h p.i.; reciprocal IP of total protein extracts (anti-Flag or antibody against the cellular protein), high stringency buffer with 300 mM NaCl, overnight at 4°C, protein G agarose; Western blot.

Experiment [6] concerns the target ORFV119^Flag (ORFV119-3xFlag fusion protein expressed from plasmid pORFV119^Flag) (orf virus (ORFV) strain OV-IA82). Description: co-IP; HeLa cells transfected with pORFV119^Flag, harvested 12 h post transfection; reciprocal IP (anti-Flag or anti-pRb), high stringency buffer with 300 mM NaCl; Western blot.
For experiment [7] the target is unchanged. Description: co-IP; HEK 293T cells transfected with pORFV119^Flag, pORFV119^LxGxE-Flag or pORFV113^Flag, harvested 12 h post transfection; reciprocal IP of total protein extracts (anti-Flag, anti-pRb or anti-TRAF2), high stringency buffer with 300 mM NaCl, overnight at 4°C, protein G agarose; Western blot.

From paper PMC5747488 come the findings set out here.

As for “ORFV119^Flag (ORFV119-3xFlag fusion protein expressed from plasmid pORFV119^Flag) (natural protein)”, the percentage co-immunoprecipitated is 38.7% in experiment [1] and 28.4% in experiment [2].
As for “ORFV119^Flag expressed by revertant virus OV-IA82-RV119^Flag (natural protein)”, the percentage co-immunoprecipitated in experiment [3] worked out at 18.5%.
In experiment [4], “ORFV119^LxGxE-Flag expressed by revertant virus OV-IA82-RV119^LxGxE-Flag (natural protein)” gave a fold increase of phosphorylated IKKα/β (Ser176/180) in OFTu cells infected with OV-IA82-RV119^LxGxE-Flag relative to OV-IA82, Western blot densitometry, 30 min and 1 h p.i. of 27.4 fold; a fold increase of phosphorylated IκBα (Ser32/36) in OFTu cells infected with OV-IA82-RV119^LxGxE-Flag relative to OV-IA82, Western blot densitometry, 30 min and 1 h p.i. of 21.2 fold; a fold increase of phosphorylated NF-κB-p65 (Ser536) in OFTu cells infected with OV-IA82-RV119^LxGxE-Flag relative to OV-IA82, Western blot densitometry, 30 min and 1 h p.i. of 13.2 fold.
On to “retinoblastoma protein (pRb), endogenous in ovine OFTu cells (natural protein)”, for which the percentage co-immunoprecipitated in experiment [5] was 8.7%.

B1: retinoblastoma protein (pRb), endogenous in human cells (natural protein)
chain: MPPKTPRKTAATAAAAAAEPPAPPPPPPPEEDPEQDSGPEDLPLVRLEFEETEEPDFTALCQKLKIPDHVRERAWLTWEKVSSVDGVLGGYIQKKKELWGICIFIAAVDLDEMSFTFTELQKNIEISVHKFFNLLKEIDTSTKVDNAMSRLLKKYDVLFALFSKLERTCELIYLTQPSSSISTEINSALVLKVSWITFLLAKGEVLQMEDDLVISFQLMLCVLDYFIKLSPPMLLKEPYKTAVIPINGSPRTPRRGQNRSARIAKQLENDTRIIEVLCKEHECNIDEVKNVYFKNFIPFMNSLGLVTSNGLPEVENLSKRYEEIYLKNKDLDARLFLDHDKTLQTDSIDSFETQRTPRKSNLDEEVNVIPPHTPVRTVMNTIQQLMMILNSASDQPSENLISYFNNCTVNPKESILKRVKDIGYIFKEKFAKAVGQGCVEIGSQRYKLGVRLYYRVMESMLKSEEERLSIQNFSKLLNDNIFHMSLLACALEVVMATYSRSTSQNLDSGTDLSFPWILNVLNLKAFDFYKVIESFIKAEGNLTREMIKHLERCEHRIMESLAWLSDSPLFDLIKQSKDREGPTDHLESACPLNLPLQNNHTAADMYLSPVRSPKKKGSTTRVNSTANAETQATSAFQTQKPLKSTSLSLFYKKVYRLAYLRLNTLCERLLSEHPELEHIIWTLFQHTLQNEYELMRDRHLDQIMMCSMYGICKVKNIDLKFKIIVTAYKDLPHAVQETFKRVLIKEEEYDSIIVFYNSVFMQRLKTNILQYASTRPPTLSPIPHIPRSPYKFPSSPLRIPGGNIYISPLKSPYKISEGLPTPTKMTPRSRILVSIGESFGTSEKFQKINQMVCNSDRVLKRSAEGSNPPKPLKKLRFDIEGSDEADGSKHLPGESKFQQKLAEMTSTRTRMQKQKMNDSMDTSNKEEK
Take B1: the percentage co-immunoprecipitated in experiment [6] is 21.5%; in experiment [7], 16.7%.
